Columns and labels:
[1] = target: T1, human beta klotho expressed on cells (human, UniProt Q86Z14 1-1044); assay: cell-based or functional assay
T1 sequence: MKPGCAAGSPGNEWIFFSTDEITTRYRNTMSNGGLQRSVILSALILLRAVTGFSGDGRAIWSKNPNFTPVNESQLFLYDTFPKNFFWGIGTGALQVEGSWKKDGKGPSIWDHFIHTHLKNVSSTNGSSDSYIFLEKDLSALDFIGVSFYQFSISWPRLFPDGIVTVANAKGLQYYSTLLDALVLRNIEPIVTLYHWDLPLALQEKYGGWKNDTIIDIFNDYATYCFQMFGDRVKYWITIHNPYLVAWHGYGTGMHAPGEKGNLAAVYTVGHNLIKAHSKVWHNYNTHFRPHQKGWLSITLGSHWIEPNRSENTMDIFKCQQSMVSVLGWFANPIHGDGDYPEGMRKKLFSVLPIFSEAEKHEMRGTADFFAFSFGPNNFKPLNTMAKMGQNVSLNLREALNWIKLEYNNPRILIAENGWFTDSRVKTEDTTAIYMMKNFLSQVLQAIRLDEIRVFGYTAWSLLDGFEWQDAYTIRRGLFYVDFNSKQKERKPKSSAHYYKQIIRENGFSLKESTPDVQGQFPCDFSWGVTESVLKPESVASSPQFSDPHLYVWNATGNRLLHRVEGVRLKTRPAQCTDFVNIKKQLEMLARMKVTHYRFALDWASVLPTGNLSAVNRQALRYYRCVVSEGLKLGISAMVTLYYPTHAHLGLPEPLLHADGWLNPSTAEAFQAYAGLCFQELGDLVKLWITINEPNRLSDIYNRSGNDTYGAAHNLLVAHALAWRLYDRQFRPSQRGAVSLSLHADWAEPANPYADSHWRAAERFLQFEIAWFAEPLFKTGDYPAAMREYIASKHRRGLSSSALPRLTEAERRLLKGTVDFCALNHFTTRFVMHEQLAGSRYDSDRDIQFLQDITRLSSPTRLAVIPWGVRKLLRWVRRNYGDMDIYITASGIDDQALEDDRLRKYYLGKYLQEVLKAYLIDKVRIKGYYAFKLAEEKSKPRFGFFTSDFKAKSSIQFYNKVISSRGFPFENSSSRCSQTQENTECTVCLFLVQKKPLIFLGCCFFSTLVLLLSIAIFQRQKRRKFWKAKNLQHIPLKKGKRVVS

[2] = target: T2, cynomolgus monkey beta klotho expressed on cells (cynomolgus monkey (Macaca fascicularis), UniProt Q86Z14 1-1044 (human entry)); assay: cell-based or functional assay
T2 chain: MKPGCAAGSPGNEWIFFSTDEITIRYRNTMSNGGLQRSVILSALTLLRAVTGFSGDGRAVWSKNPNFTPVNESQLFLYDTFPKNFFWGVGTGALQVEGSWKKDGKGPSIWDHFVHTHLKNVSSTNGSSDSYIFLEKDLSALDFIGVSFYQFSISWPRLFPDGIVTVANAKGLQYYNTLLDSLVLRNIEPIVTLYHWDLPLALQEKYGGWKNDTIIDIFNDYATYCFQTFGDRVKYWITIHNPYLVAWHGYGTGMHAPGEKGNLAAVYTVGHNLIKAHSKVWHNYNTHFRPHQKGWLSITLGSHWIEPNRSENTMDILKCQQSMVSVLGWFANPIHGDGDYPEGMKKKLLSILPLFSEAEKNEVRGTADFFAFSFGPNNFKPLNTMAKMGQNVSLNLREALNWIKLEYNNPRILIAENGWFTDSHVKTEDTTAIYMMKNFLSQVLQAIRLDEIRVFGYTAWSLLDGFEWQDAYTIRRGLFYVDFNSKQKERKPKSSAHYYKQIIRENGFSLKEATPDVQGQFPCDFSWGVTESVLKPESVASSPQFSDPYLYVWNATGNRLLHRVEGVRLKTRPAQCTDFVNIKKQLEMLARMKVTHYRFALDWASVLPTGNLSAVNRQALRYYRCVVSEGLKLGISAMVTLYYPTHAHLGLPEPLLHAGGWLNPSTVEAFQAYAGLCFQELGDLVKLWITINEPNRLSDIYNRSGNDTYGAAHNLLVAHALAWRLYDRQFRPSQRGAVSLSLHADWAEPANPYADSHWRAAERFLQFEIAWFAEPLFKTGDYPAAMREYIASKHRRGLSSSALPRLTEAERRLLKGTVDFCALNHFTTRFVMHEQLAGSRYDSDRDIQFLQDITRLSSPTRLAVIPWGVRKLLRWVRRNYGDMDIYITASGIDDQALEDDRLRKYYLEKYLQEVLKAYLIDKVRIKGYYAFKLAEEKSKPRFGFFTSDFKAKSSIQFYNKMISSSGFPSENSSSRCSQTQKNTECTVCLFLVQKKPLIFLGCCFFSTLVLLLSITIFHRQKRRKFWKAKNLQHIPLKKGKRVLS

[3] = target: T1, human beta klotho expressed on cells; assay: FACS competition on HuKLB overexpressing cells; cells pre-incubated with the row's antibody, competitor: labelled 3I13-Alexa488
Method: (§1) For example, for competition binding assays by FACS analysis, antibody standards were prepared that were conjugated to a fluorochrome using either A488 or A647 antibody labeling kit (Invitrogen) following manufacturer's instructions. A dose titration of the conjugated antibody standard was evaluated using HuKLB overexpressing cells. The plateau of the maximal signal of antibody binding is EC=100 and the background signal is EC=0. Competition by FACS against the fluorochrome labeled antibody was performed by pre-incubating HuKLB overexpressing cells with hybridoma supernatants for 15 minutes at room temperature. Without washing, an EC=10 concentration of A488 or A647 labelled antibody standard was added. EC=10 for an individual antibody was determined by 10% of signal using the maximum signal as (100%) and background signal as (0%). After 30 minutes at 4° C., cells are washed and analyzed by FACS. […] A partial competing antibody is one sample that show signal between labelled antibody alone and background. Antibodies that show complete competition against the same standard antibody are considered to be in the same bin.
(§2) In exemplary competition binding experiments by FACS, antibody 3I13 or 9E19 was used as an antibody standard fora positive control (competing antibody) or a negative control (labeled antibody alone), respectively. Representative results are shown in Table 5 below reported as mean fluorescence intensity (MFI).

[4] = target: T3, cynomolgus monkey beta klotho protein (cynomolgus monkey (Macaca fascicularis), UniProt Q86Z14 53-996 (human entry), limits assumed); assay: Biacore SPR; antibody captured on anti-mouse Fc CM5 chip, beta klotho 1.56-25 nM injected, 25 C
T3 construct: Soluble protein injected in Biacore assays; also called Cyno KLB; cyno beta klotho
T3 chain: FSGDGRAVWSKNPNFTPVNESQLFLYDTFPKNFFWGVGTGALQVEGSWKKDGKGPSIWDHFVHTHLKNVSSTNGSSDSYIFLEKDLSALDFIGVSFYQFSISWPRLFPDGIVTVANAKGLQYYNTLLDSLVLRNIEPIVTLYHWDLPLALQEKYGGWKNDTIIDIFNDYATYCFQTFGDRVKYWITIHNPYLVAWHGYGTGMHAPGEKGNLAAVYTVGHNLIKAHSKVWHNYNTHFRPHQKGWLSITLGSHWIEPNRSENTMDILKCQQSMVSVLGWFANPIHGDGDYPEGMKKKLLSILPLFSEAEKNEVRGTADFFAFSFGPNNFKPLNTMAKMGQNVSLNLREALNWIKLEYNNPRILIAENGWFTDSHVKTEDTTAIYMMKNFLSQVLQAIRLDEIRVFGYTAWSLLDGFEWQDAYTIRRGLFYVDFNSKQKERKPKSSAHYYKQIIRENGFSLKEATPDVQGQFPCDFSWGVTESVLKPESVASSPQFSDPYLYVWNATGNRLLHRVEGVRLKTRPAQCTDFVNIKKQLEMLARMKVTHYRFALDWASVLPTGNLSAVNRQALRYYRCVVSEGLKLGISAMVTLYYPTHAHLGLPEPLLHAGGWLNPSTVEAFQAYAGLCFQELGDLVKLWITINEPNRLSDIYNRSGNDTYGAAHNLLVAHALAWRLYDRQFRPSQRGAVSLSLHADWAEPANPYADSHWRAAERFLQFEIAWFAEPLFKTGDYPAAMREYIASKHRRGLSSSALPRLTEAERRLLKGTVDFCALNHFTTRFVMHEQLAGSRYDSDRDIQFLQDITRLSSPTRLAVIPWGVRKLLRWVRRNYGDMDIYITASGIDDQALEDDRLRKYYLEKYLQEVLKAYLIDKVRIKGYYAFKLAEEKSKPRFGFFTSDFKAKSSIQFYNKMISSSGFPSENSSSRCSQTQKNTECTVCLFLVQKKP
Method: (§3) Binding affinity measurements were also made in additional Biacore based assays. For example, equilibrium dissociation constant (KD) measurements were carried out with purified antibodies to evaluate their binding to human beta klotho and cyno beta klotho. As mentioned above, anti-mouse Fc antibody (Sigma-Aldrich, St. Louis, Mo.) was immobilized on all four flow cells of a CM5 chip using amine coupling reagents (GE Healthcare LifeSciences, Piscataway, N.J.). Purified antibodies were captured (˜100 RUs) on flow cells 2, 3 and 4 using flow cell 1 as a reference. This was followed by injection of different concentrations of human or cyno beta klotho (1.56 nM to 25 nM, two-fold dilutions in PBS-P buffer) at a flow rate of 70 μL/min and the binding kinetics were evaluated at 25° C.

[5] = target: T4, human beta klotho protein (human, UniProt Q86Z14 53-997, limits assumed); assay: as above
T4 construct: also called HuKLB; human beta klotho (R&D Systems)
T4 sequence: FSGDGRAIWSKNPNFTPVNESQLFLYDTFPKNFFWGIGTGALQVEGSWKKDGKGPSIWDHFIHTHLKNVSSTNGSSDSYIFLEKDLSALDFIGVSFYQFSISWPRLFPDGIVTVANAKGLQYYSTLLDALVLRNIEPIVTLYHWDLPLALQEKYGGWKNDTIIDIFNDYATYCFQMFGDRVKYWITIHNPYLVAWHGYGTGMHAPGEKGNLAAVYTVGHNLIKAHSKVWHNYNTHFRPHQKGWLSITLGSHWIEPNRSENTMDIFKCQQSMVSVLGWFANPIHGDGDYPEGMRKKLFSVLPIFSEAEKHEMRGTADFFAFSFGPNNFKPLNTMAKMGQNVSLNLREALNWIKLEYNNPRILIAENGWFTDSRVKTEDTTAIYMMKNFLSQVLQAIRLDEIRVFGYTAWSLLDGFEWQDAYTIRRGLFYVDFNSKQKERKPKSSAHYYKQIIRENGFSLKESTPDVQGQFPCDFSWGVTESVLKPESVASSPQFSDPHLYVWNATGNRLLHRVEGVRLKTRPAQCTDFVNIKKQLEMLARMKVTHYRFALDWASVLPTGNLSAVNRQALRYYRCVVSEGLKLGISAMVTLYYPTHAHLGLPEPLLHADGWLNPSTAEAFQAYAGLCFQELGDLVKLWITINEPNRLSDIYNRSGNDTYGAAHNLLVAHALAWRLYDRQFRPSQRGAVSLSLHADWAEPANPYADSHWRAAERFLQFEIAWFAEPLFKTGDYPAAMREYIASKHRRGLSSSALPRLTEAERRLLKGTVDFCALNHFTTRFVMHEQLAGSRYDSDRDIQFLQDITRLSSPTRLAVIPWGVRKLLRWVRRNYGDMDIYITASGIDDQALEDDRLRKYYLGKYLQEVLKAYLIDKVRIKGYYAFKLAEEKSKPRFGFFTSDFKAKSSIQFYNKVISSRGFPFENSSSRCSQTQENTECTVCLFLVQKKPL
Method: as §3

[6] = target: T1, human beta klotho expressed on cells; assay: FACS competition on HuKLB overexpressing cells; cells pre-incubated with the row's antibody, competitor: labelled 9E19-Alexa647
Method: as §1, §2

B1: anti-beta klotho monoclonal antibody 3I13 (antibody, V domains shown)
VH: QVQLQQSGPELVKPGASVKISCKTSGYTFTEYTMHWVKQSHGKSLEWIGSFNPDSGGTSYNQKFKGKATLTVDKSSSTAYMELRSLTSEDSAVYYCARDDGYSTRYWYFDVWGAGTTVTVSS
VL: DIQMTQSPASLSASVGETVTITCGASENIYGALNWFQRKQGKSPQLLIYGATILADGMSSRFSGSGSGRQYSLKISSLHPDDVATYYCQNVLSTPYTFGGGTKLEIK
notes: Murine monoclonal antibody from a hybridoma (captured by anti-mouse Fc); also called 3I13 - Alexa488
With B1 the “HEK293 huKLB/R1c reporter assay EC50 (Experiment - A)” value [1] was 333 pM, the “HEK293 huKLB/R1c reporter assay EC50 (Experiment - B)” value [1] was 1980 pM and the “HEK293 cynoKLB/R1c reporter assay EC50” value [2] was 438 pM. For the same binder, the “Mean Florescence Intensity (MFI)” value [3] was 8.1 MFI, the Kd [4] was 1.9 nM and the Kd [5] was 0.4 nM. The “Mean Florescence Intensity (MFI)” value [6] was 27.8 MFI.

B2: anti-beta klotho monoclonal antibody 2J21 (antibody, V domains shown)
VH: EVQLQQSGPELVKPGASVKISCKTSGYTFTEYIMHWVKQSHGKSLEWIGNIDPNTGGTSYNQKFKGKATLTVDKSSITAFMELRSLTSEDSAVYYCARDDGYSTRYWYFDVWGAGTTVTVSS
VL: DIQMTQSPPSLSASVGETVTITCGASENIYGALNWYQRKQGKSPQLLIYGATNLADGMSSRFSGSGSGRQYSLKISSLHPDDVATYYCQNVLSTPYTFGGGTKLEIK
notes: Murine monoclonal antibody from a hybridoma
With B2 the “Mean Florescence Intensity (MFI)” value [3] was 10.2 MFI, the Kd [4] was 12.2 nM and the Kd [5] was 4.8 nM. For the same binder, the “Mean Florescence Intensity (MFI)” value [6] was 25.7 MFI.

B3: anti-beta klotho monoclonal antibody 4A2 (antibody, V domains shown)
VH: EVQLQQSGPELVKPGTSVKISCKTSGYTFTEYTMYWVKQSHGKSLEWIGGFNPNYGGASYNQKFKDKATLTVDKSSSTAYMELRSLTSEDSAVYYCARDDGYSTRYWYFDVWGAGTTVTVSS
VL: DIQMTQSPASLSASVGETVTITCGASENIYGALNWYQRKQGKSPQLLIYGATNLADGMSSRFSGSGSGRQYSLKISSLHPDDVATYYCQNVLSTPYTFGGGTKLEIK
notes: as for B2
For B3, the “Mean Florescence Intensity (MFI)” value [3] was 9.1 MFI, the Kd [4] was 3.2 nM and the Kd [5] was 0.92 nM. The “Mean Florescence Intensity (MFI)” value [6] was 28.5 MFI.

Source: patent publication US20210115133A1 (NGM BIOPHARMACEUTICALS, published 2021)
